Reference: patent US20160340421A1 (Regeneron, published 2016)

T1: Human GDF8 homodimer (mature human Growth and Differentiation Factor-8) (human, UniProt O14793 267-375)
T1 construct: also called hGDF8; myostatin
T1 sequence: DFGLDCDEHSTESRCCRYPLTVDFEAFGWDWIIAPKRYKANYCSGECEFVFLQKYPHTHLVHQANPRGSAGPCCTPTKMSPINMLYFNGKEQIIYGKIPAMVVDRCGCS

T2: hGDF11 homodimer (human, UniProt O95390 299-407)
T2 sequence (looked up): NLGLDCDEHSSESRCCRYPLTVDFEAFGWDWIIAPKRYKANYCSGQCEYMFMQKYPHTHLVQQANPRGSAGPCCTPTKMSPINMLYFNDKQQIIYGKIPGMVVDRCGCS


Experiments:
[1] = target: T1, Human GDF8 homodimer (mature human …); experiment: SPR, antibody captured, 25 nM antigen
Protocol: (§1) Equilibrium dissociation constants (KD values) for antigen binding to selected antibodies were determined by surface kinetics using a real-time biosensor surface plasmon resonance assay (BIACORE™ 2000). Each selected antibody was captured on either a goat anti-mouse IgG polyclonal antibody surface or a goat anti-hFc polyclonal antibody (Jackson Immuno Research Lab) surface created through direct chemical coupling to a BIACORE™ chip to form a captured antibody surface. Human GDF8 homodimer, hGDF11 homodimer, or hGDF5 homodimer at 25 nM was injected over the captured antibody surfaces, and antigen-antibody binding and dissociation were monitored in real time at room temperature. Kinetic analysis was performed to calculate KD, dissociation rate constants (kd), association rate constants (ka) and half-life of antigen/antibody complex dissociation (Table 2).

[2] = target: T2, hGDF11 homodimer; experiment: SPR, antibody captured, 25 nM antigen
Protocol: as §1

[3] = target: T1, Human GDF8 homodimer (mature human …); experiment: cell-based or functional assay
[4] = target: T2, hGDF11 homodimer; experiment: cell-based or functional assay

Binder | Kd [1] [nM] | T1/2 [1] [h] | Kd [2] [nM] | T1/2 [2] [h] | IC50, GDF8-inducible luciferase, A204/Smad2 cells, 0.8 nM GDF8 [3] [nM] | IC50, GDF11-inducible luciferase, A204/Smad2 cells, 0.8 nM GDF11 [4] [nM]
58C8 (antibody, V domains shown) VH: EVQLLESGGGLVQPGGSLRLSCAASGFTSITYAMSWVRQAPGKGLEWVSAISVSGTNTYYADSVKGRFTISRDKSKNMLYLQMNSLRAEDTAVYYCAKDLLHNWKYGTFDIWGQGTMVTVSS VL: not shown | 0.62 | 0.933 | 0.44 | 0.5 | 1.8 | > 25
22-D3 (antibody, V domains shown) VH: QVQLVQSGGGLVKPGGSLRLSCAASGFTFSSYSMNWVRQAPGKGLEWVSSISSSSSYIYYADSVKGRFTISRDNAKNSLYLQMNSLRAEDTAVYYCARDRGYTFGVDYWGQGTTVTVSS VL: AIQMTQSPSSLSASVGDRVTITCRASQGIRNDLGWYQQKPGKAPKRLIYAASSLQSGVPSRFSGSGSGTEFTLTISSLQPEDFATYYCLQHNSYPYTFGQGTKVEIKR | 1.23 | 0.567 | 1.09 | 0.35 | > 20 | > 25
21-B9 (antibody, V domains shown) VH: QVQLVQSGPGLVKPSETLSLTCTVSGGSISNSNYYWGWIRQPPGKGLEWIGTTYYSGTTYYNPSLKSRVTISVDTSKNQFSLKLSSVTAADTAVYYCARDYYDSSGYYYNWFDPWGQGTTVTVSS VL: DIQLTQSPSSLSASVGDRVTITCRASQDIRNDLGWYQQKPGKAPKRLIYAASSLQSGVPSRFSGSGSGTEFSLTLSSLQPEDFATYFCLQHHIYPWTFGQGTKLEIKR | 0.12 | 2.1 | 0.064 | 2.22 | 0.62 | 1.2
22-E6 (antibody, V domains shown) VH: QVQLVQSGPGLVKPSETLSLTCTVSGGSIITYSYYWGWIRQPPGKGLEWIGTIHHSGSTYYNPSLKSRVTISVDTSKNQFSLTLSSVTAADTAVYYCARDYYDSSGYYYNWFDPWGQGTMVTVSS VL: AIQMTQSPSSLSASVGDRVTITCRASQGIRNDLGWYQQKPGKAPKRLIYAASSLQSGVPSRFSGSGSGTEFTLTISSLQPEDFATYYCLQHNSSPWTFGQGTKVEIKR | 0.26 | 2.47 | 0.12 | 1.45 | 2.2 | 22.4
21-E9 (antibody, V domains shown) VH: EVQLVQLGPGLVKPSETLSLTCTVSGGSISNSNYYWGWIRQPPGKGLEWIGTTYYSGTTYYNPSLKSRVTISVDTSKNQFSLKLSSVTAADTAVYYCARDYYDSSGYYYNWFDPWGQGTTVTVSS VL: AIQMTQSPSSLSASVGDRVTITCRASQDIRNDLGWYQQKPGKAPKRLIYAASSLQSGVPSRFSGSGSGTEFSLTLSSLQPEDFATYFCLQHHIYPWTFGQGTKVEIKR | 0.14 | 2.58 | 0.07 | 3.68 | 0.99 | 1.2
9B4-3 (antibody, V domains shown) VH: EVQLLESGGGLVQPGESLRLSCAASGFTFSSYAMNWVRQAPGKGLEWVSTISGSGGYIYYADSVKGRFTISRDNSKNTLYLQMNSLRAEDTAVYFCAKDSRYNWNYGNFDYWGQGTLVTVSS VL: EIVMTQSPATLSVSPGERATLSCRASQNVSSNLAWNKQKPGQAPRLLIYATSTRATGVPARFSASGSGTDFALTINSLQSEDFAVYYCQQYNNWPLTFGGGTKVEIK | 1.18 | 0.833 | 1.08 | 0.533 |  | 
3A4-3 (antibody, V domains shown) VH: QVQLVQSGGGLVKPGGSLRLSCAASGFIFNTYTMNWVRQAPGKGLEWVSSITSRGTYIFYSDSLKGRFTISRDNANNSLFLQMNSLRVEDTAVYYCSRDRGYTFGPDYWGQGTLVTVSS VL: DIQMTQSPSSLSASVGDRVTITCRASQDIRNDLGWYQQKPGKAPKGLIYAASSLQSGVPSRFSGSGSGTEFTLTISSLQPEDFATYHCLHYDFHPRTFGQGTKVEIK | 1.07 | 2.28 | 0.51 | 1.18 | 3.1 | > 20
3E2-1 (antibody, V domains shown) VH: QVQLQQWGAGLLKPSETLSLTCAVYGGSFSGYYWSWIRQPPGKGLEWIGEINHSGNTNYNPSLKSRVTISVDTSKNQFSLKLNSVTAADTAVYYCARREATVTPYFDYWGQGTLVTVSS VL: DIQLTQSPSFLSASVGDRVTITCWASQGISSYLAWYQQKPGKAPKLLIYAASTLQSGVPSRFSGSGSGTEFTLTISSLQPEDFATYYCQQLNSYPLTFGGGTKVEIK | 2.55 | 0.75 | 0.7 | 1.32 |  | 
